US20080125362A1, “Method of screening compound preventing cells from infection with Hepatitis C virus (HCV)” (Japan Tobacco Inc., priority 2004, published 2008)

Columns and labels:
[1] = test system: ΔG/SEAP/HCV E1E2; assay: Effects of FGF family members on infectivity of pseudotyped HCV to HepG2 cells (SEAP reporter); type: cell-based; details: for IC50 ΔG/SEAP/HCV E1E2: growth factor added 1 hour before virus, SEAP in supernatant after 24 hours; for infection of ΔG/SEAP/HCV E1E2: result in words
[2] = test system: ΔG/SEAP/HCV E1E2; assay: Effects of solubilized FGFR-1 to FGFR-4 (FGFR/Fc) on infectivity of pseudotyped HCV to HepG2 cells; type: cell-based; details: FGFR/Fc mixed with virus 1 hour before inoculation, FIG. 5

**Q.** With “human FGF 2 (basic): human-derived fibroblast growth factor 2 (basic), commercial product of Pepro Tech” as the molecule, how does the “IC50 ΔG/SEAP/HCV E1E2” value [1] read?
**A.** The value was 1.36 µg/mL.

**Q.** What about the “infection of ΔG/SEAP/HCV E1E2” value [1] of the same molecule?
**A.** Its value is “inhibited”.

**Q.** With “human FGF 20: human-derived fibroblast growth factor 20, commercial product of Pepro Tech” as the molecule, how does the “IC50 ΔG/SEAP/HCV E1E2” value [1] read?
**A.** The value was >10 µg/mL.

**Q.** How did the “infectivity of ΔG/SEAP/HCV E1E2” value [2] turn out when FGFR-4 was run?
**A.** The value was “inhibited”.

**Q.** How did the “IC50 ΔG/SEAP/HCV E1E2” value [1] turn out when “human FGF 18: human-derived fibroblast growth factor 18, commercial product of Pepro Tech” was run?
**A.** Its value is >10 µg/mL.

B1: human FGF 7 (KGF): human-derived fibroblast growth factor 7 (KGF), commercial product of Pepro Tech (protein)
chain: CNDMTPEQMATNVNCSSPERHTRSYDYMEGGDIRVRRLFCRTQWYLRIDKRGKVKGTQEMKNNYNIMEIRTVAVGIVAIKGVESEFYLAMNKEGKLYAKKECNEDCNFKELILENHYNTYASAKWTHNGGEMFVALNQKGIPVRGKKTKKEQKTAHFLPMAIT
**Q.** What does the source list for B1?
**A.** IC50 ΔG/SEAP/HCV E1E2 [1]: 2.32 µg/mL; infection of ΔG/SEAP/HCV E1E2 [1]: inhibited

B2: human FGF 8: human-derived fibroblast growth factor 8, commercial product of Pepro Tech (protein)
chain: QVTVQSSPNFTQHVREQSLVTDQLSRRLIRTYQLYSRTSGKHVQVLANKRINAMAEDGDPFAKLIVETDTFGSRVRVRGAETGLYICMNKKGKLIAKSNGKGKDCVFTEIVLENNYTALQNAKYEGWYMAFTRKGRPRKGSKTRQHQREVHFMKRLPRGHHTTEQSLRFEFLNYPPFTRSLRGSQRTWAPEPR
**Q.** Which results are given for B2?
**A.** IC50 ΔG/SEAP/HCV E1E2 [1]: 8.51 µg/mL; infection of ΔG/SEAP/HCV E1E2 [1]: inhibited

B3: human FGF 17: human-derived fibroblast growth factor 17, commercial product of Pepro Tech (protein)
chain: TQGENHPSPNFNQYVRDQGAMTDQLSRRQIREYQLYSRTSGKHVQVTGRRISATAEDGNKFAKLIVETDTFGSRVRIKGAESEKYICMNKRGKLIGKPSGKSKDCVFTEIVLENNYTAFQNARHEGWFMAFTRQGRPRQASRSRQNQREAHFIKRLYQGQLPFPNHAEKQKQFEFVGSAPTRRTKRTRRPQPLT
**Q.** B3 was tested. Which “IC50 ΔG/SEAP/HCV E1E2” value [1] did it give?
**A.** Its value is 7.41 µg/mL.

**Q.** And the “infection of ΔG/SEAP/HCV E1E2” value [1]?
**A.** The value was “inhibited”.

B4: human FGF 10: human-derived fibroblast growth factor 10, commercial product of Pepro Tech (protein)
chain: LGQDMVSPEATNSSSSSFSSPSSAGRHVRSYNHLQGDVRWRKLFSFTKYFLKIEKNGKVSGTKKENCPYSILEITSVEIGVVAVKAINSNYYLAMNKKGKLYGSKEFNNDCKLKERIEENGYNTYASFNWQHNGRQMYVALNGKGAPRRGQKTRRKNTSAHFLPMVVHS
**Q.** For B4, which “IC50 ΔG/SEAP/HCV E1E2” value [1] is on record?
**A.** The value was >10 µg/mL.
